# Test results taken from article PMC4593522, “Development of a Radiolabeled Peptide-Based Probe Targeting MT1-MMP for Breast Cancer Detection” (PLoS ONE, 2015).
# Like-named read-outs stand apart in the source and are kept apart here. Square brackets hold non-standard residues; d marks the D form. Peptide text beside a SMILES is read from it. * marks the point of attachment. HYNIC = NNc1ccc(C(=O)*)cn1; AEEA = NCCOCCOCC(=O)O
# What was measured:
# [1] = In vitro solution stability in the presence of excess cysteine (radio-HPLC); format: physicochemical; settings: 1 mg/mL cysteine, pH = 7.4, 37°C, mean ± SD
# Experimental: HYNIC-AF7p solution (20 μL, 60 μg/mL in H2O), of tricine solution (100 μL, 100 mg/mL in 25 mM succinate buffer, pH 5.0), SnCl2 solution (10 μL, 3 mg/mL in 0.1 M HCl) and Na^99mTcO4 (100 μL, 370 MBq) in saline were added into a 5 mL Eppendorf tube. The reaction mixture was kept at room temperature for 10 min. To the reaction mixture above was added 100 μL of the TPPTS solution (50 mg/mL in 25 mM succinate buffer, pH 5.0). The vial containing the reaction mixture was sealed, cramped, and heated at 90°C for 30 min. After cooling to room temperature, sample was analyzed by radio-HPLC. The radio-HPLC method used a HP Hewlett Packard Series 1100 HPLC system equipped with a Radioflow Detector LB509 and a reversed-phase Zorbax SB-C18 column (4.6 mm × 250 mm, 5 μm). The flow rate was 1 mL/min. The gradient mobile phase started with 90% solvent A (0.1% TFA in water) and 10% solvent B (0.1% TFA in acetonitrile) to 30% solvent A and 70% solvent B at 24 min to 0% solvent A and 100% solvent B at 27 min, followed with 90% solvent A and 10% solvent B at 30 min. […]
# 100 μL of [^99mTc]-(HYNIC-AF7P)(tricine)(TPPTS) was added to either 0.9% physiological saline or 1 mg/mL cysteine solution. […] After 1 h, 2 h, 3 h, 4 h, 5 h and 6 h incubation, the radiochemical purity for [^99mTc]-(HYNIC-AF7P)(tricine)(TPPTS) at each time point was detected by radio-HPLC as described above.
# [2] = In vivo biodistribution study (ex vivo organ counting); set-up: species or system mice; settings: female, mouse, iv, total radioactivity, mean ± SD, n = 3; for tissue uptake at 0.5 h: 0.5h after i.v.; for tissue uptake at 1 h: 1h after i.v.; for tissue uptake at 2 h: 2h after i.v.; for tissue uptake at 4 h: 4h after i.v.
# Experimental: All animal experiments were approved by Jilin University Health Science Center Animal Care and Use Committee. Human breast carcinoma cell line MDA-MB-231 with high MT1-MMP expression and human lung adenocarcinomaepithelial cell line A549 with low MT1-MMP expression were cultured in DMEM medium containing 10% (v/v) fetal bovine serum (Invitrogen) supplemented with penicillin (100 μg/mL) and streptomycin (100 μg/mL) at 37°C with 5% CO2. MDA-MB-231 and A549 tumor models were established by subcutaneous injection of 5×10^6 cells into the upper right front flank of female athymic nude mice (Department of Experimental Animal, Peking University Health Science Center). Tumor growth was monitored by caliper measurements three times a week after the tumors are palpable. The mice were used for SPET/CT imaging when the tumor volume reached about 200 mm3 (about 14 days after tumor inoculations). The tumor volume was determined as the formula: V = a × (b^2)/2, where a and b are the length and width of each tumor in mm respectively. During the injection and image acquisition process, the mice were anesthetized with 2.5% isoflurane in oxygen delivered at a flow rate of 1.5 L/min.
# Animals were divided into 4 groups (n = 3) for 4 time points with approximately equal distribution of tumor sizes on the day before the study. At 0.5, 1, 2, and 4 h after intravenous administration of [^99mTc]-(HYNIC-AF7P)(tricine)(TPPTS), MDA-MB-231 tumor bearing mice were euthanized. […] The organ uptake was calculated as a percentage of the injected dose per gram of wet tissue (%ID/g).
# [3] = BALB/c nude, blood, read-out: Blood uptake
# [4] = BALB/c nude, bone, read-out: Bone uptake
# [5] = BALB/c nude, heart, read-out: Heart uptake
# [6] = BALB/c nude, kidney, read-out: Kidney uptake
# [7] = BALB/c nude, liver, read-out: Liver uptake
# [8] = BALB/c nude, lung, read-out: Lung uptake
# [9] = BALB/c nude, muscle, read-out: Muscle uptake
# [10] = BALB/c nude, spleen, read-out: Spleen uptake
# [11] = athymic nude, intestine, read-out: Intestine uptake
# [12] = athymic nude, pancreas, read-out: Pancreas uptake
structure (smiles),measurement,setting,value
"CC(C)C[C@H](NC(=O)[C@H](Cc1ccccc1)NC(=O)[C@@H](NC(=O)[C@H](CCCCN)NC(=O)[C@@H](NC(=O)[C@H](CC(N)=O)NC(=O)[C@H](Cc1c[nH]cn1)NC(=O)[C@H](CC(C)C)NC(=O)[C@H](Cc1c[nH]cn1)NC(=O)[C@H](CCCCN)NC(=O)[C@H](Cc1c[nH]c2ccccc12)NC(=O)[C@H](Cc1c[nH]cn1)NC(=O)c1ccc(NN)nc1)[C@@H](C)O)[C@@H](C)O)C(=O)NCCOCCOCC(=O)O [[^99mTc]-(HYNIC-AF7P)(tricine)(TPPTS), metal not drawn] ({HYNIC}-HWKHLHNTKTFL[AEEA]-OH)",original form (radiochemical purity) in solution containing excess cysteine,[1]; after 6 hours incubation,94.2 ±1.72%
same,original form (radiochemical purity) in solution containing excess cysteine,[1]; at the beginning,96.8 ± 1.52%
same,tissue uptake at 0.5 h,[2]; [3],0.36 ± 0.02 %ID/g
same,tissue uptake at 1 h,[2]; [3],0.28 ± 0.01 %ID/g
same,tissue uptake at 2 h,[2]; [3],0.2 ± 0.01 %ID/g
same,tissue uptake at 4 h,[2]; [3],0.19 ± 0.01 %ID/g
same,tissue uptake at 0.5 h,[2]; [4],0.8 ± 0.04 %ID/g
same,tissue uptake at 1 h,[2]; [4],0.58 ± 0.03 %ID/g
same,tissue uptake at 2 h,[2]; [4],0.44 ± 0.02 %ID/g
same,tissue uptake at 4 h,[2]; [4],0.4 ± 0.02 %ID/g
same,tissue uptake at 0.5 h,[2]; [5],2.28 ± 0.16 %ID/g
same,tissue uptake at 1 h,[2]; [5],1.67 ± 0.2 %ID/g
same,tissue uptake at 2 h,[2]; [5],0.98 ± 0.07 %ID/g
same,tissue uptake at 4 h,[2]; [5],0.64 ± 0.04 %ID/g
same,tissue uptake at 0.5 h,[2]; [6],8.86 ± 0.48 %ID/g
same,tissue uptake at 1 h,[2]; [6],7.42 ± 0.43 %ID/g
same,tissue uptake at 2 h,[2]; [6],4.84 ± 0.19 %ID/g
same,tissue uptake at 4 h,[2]; [6],4.33 ± 0.2 %ID/g
same,tissue uptake at 0.5 h,[2]; [7],5.22 ± 0.17 %ID/g
same,tissue uptake at 1 h,[2]; [7],3.9 ± 0.32 %ID/g
same,tissue uptake at 2 h,[2]; [7],2.89 ± 0.11 %ID/g
same,tissue uptake at 0.5 h,[2]; [8],2.11 ± 0.06 %ID/g
same,tissue uptake at 1 h,[2]; [8],1.45 ± 0.18 %ID/g
same,tissue uptake at 2 h,[2]; [8],1.01 ± 0.03 %ID/g
same,tissue uptake at 4 h,[2]; [8],0.7 ± 0.09 %ID/g
same,tissue uptake at 0.5 h,[2]; [9],0.9 ± 0.06 %ID/g
same,tissue uptake at 1 h,[2]; [9],0.68 ± 0.09 %ID/g
same,tissue uptake at 2 h,[2]; [9],0.53 ± 0.04 %ID/g
same,tissue uptake at 4 h,[2]; [9],0.52 ± 0.04 %ID/g
same,tissue uptake at 0.5 h,[2]; [10],0.9 ± 0.07 %ID/g
same,tissue uptake at 1 h,[2]; [10],0.71 ± 0.06 %ID/g
same,tissue uptake at 2 h,[2]; [10],0.56 ± 0.06 %ID/g
same,tissue uptake at 4 h,[2]; [10],0.41 ± 0.02 %ID/g
same,tissue uptake at 0.5 h,[2]; [11],1.91 ± 0.05 %ID/g
same,tissue uptake at 1 h,[2]; [11],1.61 ± 0.07 %ID/g
same,tissue uptake at 2 h,[2]; [11],1.52 ± 0.12 %ID/g
same,tissue uptake at 4 h,[2]; [11],1.14 ± 0.08 %ID/g
same,tissue uptake at 4 h,"[2]; athymic nude, liver, read-out: Liver uptake",2.55 ± 0.1 %ID/g
same,tissue uptake at 0.5 h,[2]; [12],0.77 ± 0.02 %ID/g
same,tissue uptake at 1 h,[2]; [12],0.52 ± 0.03 %ID/g
same,tissue uptake at 2 h,[2]; [12],0.35 ± 0.04 %ID/g
same,tissue uptake at 4 h,[2]; [12],0.19 ± 0.02 %ID/g
